Source: patent publication US20150203577A1 (Chugai, published 2015)
Substitutions are numbered along the chain they refer to.

T1: mouse FcγRIII (mouse, UniProt P08508 31-215)
T1 construct: also called mFcγRIII; mFcgRIII
T1 chain: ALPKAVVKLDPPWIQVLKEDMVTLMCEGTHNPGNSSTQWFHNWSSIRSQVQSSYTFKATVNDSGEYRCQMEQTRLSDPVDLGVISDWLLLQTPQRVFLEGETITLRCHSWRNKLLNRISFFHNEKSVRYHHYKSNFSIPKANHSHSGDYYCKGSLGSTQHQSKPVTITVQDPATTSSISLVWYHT

T2: mouse FcγRII (mouse, UniProt P08101 30-210)
T2 construct: also called mFcγRII; mFcgRII
T2 sequence: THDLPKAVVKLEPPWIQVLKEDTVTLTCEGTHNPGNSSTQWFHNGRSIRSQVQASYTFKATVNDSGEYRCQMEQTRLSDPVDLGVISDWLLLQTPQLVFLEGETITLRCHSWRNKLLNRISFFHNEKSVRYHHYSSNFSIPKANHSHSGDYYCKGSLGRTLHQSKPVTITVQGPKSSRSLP

T3: mouse FcγRII extracellular domain, C-terminally His-tagged (mouse, UniProt P08101 30-210)
T3 construct: the whole entry is named; also called mFcγRII; mFcgRII
T3 sequence: T2 sequence

T4: mouse FcγRIII extracellular domain, C-terminally His-tagged (mouse, UniProt P08508 31-215)
T4 construct: the whole entry is named; also called mFcγRIII; mFcgRIII
T4 chain: T1 chain

B1: H237-MB290/MRAL-k0 (antibody, mouse IgG1, kappa)
heavy: QVQLQESGPGLVKPSETLSLTCAVSGHSISHDHAWSWVRQPPGEGLEWIGFISYSGITNYNPSLQGRVTISRDNSKNTLYLQMNSLRAEDTAVYYCARSLARTTAMDYWGEGTLVTVSSAKTTPPSVYPLAPGSAAQTNSMVTLGCLVKGYFPEPVTVTWNSGSLSSGVHTFPAVLQSDLYTLSSSVTVPSSTWPSETVTCNVAHPASSTKVDKKIVPRDCGCKPCICTAPEVSDVFIFPPKPKDVLTITLTPKVTCVVVDISKDDPEVQFSWFVDDVEVHTAQTQPREEQFNSTFRSVSELPIMHQDWLNGKEFKCRVNSAAFPAPIEKTISKTKGRPKAPQVYTIPPPKEQMAKDKVSLTCMITDFFPEDITVEWQWNGQPAENYKNTQPIMDTDGSYFVYSKLNVQKSNWEAGNTFTCSVLHEGLHNHHTEKSLSHSPGK
light: not shown
notes: copies: 2 + 2
B2: H237-MB305/MRAL-k0 (antibody, mouse IgG1, kappa)
heavy: B1 heavy with P231E
light: not shown
notes: copies: 2 + 2
B3: H237-MB480/MRAL-k0 (antibody, mouse IgG1, kappa)
heavy: B1 heavy with T229E, A230P, P231N, S234E, K330R
light: not shown
notes: copies: 2 + 2
B4: H237-MB490/MRAL-k0 (antibody, mouse IgG1, kappa)
heavy: B1 heavy with T229E, A230P, P231N, S234E, S294L
light: not shown
notes: copies: 2 + 2
B5: H237-MB497/MRAL-k0 (antibody, mouse IgG1, kappa)
heavy: B1 heavy with T229E, A230P, P231N, S234E, N320D, K330R
light: not shown
notes: copies: 2 + 2
B6: MB291 (antibody, mouse IgG1, kappa)
heavy: B1 heavy with A230D
light: not shown
notes: copies: 2 + 2
B7: MB293 (antibody, mouse IgG1, kappa)
heavy: B1 heavy with A230V, S234E
light: not shown
notes: copies: 2 + 2
B8: H237-MB498/MRAL-k0 (antibody, mouse IgG1, kappa)
heavy: B1 heavy with T229E, A230P, P231N, S234E, S294L, N320D, K330R
light: not shown
notes: copies: 2 + 2
B9: MB294 (antibody, mouse IgG1, kappa)
heavy: B1 heavy with A230V, V236E
light: not shown
notes: copies: 2 + 2
B10: H237-MB491/MRAL-k0 (antibody, mouse IgG1, kappa)
heavy: B1 heavy with T229E, A230P, P231N, S234E, S294M
light: not shown
notes: copies: 2 + 2
B11: H237-MB493/MRAL-k0 (antibody, mouse IgG1, kappa)
heavy: B1 heavy with T229E, A230P, P231N, S234E, S294L, N320D
light: not shown
notes: copies: 2 + 2
B12: H237-MB337/MRAL-k0 (antibody, mouse IgG1, kappa)
heavy: B1 heavy with T229E, S234E
light: not shown
notes: copies: 2 + 2
B13: H237-MB495/MRAL-k0 (antibody, mouse IgG1, kappa)
heavy: B1 heavy with T229E, A230P, P231N, S234E, S294M, N320D
light: not shown
notes: copies: 2 + 2
B14: H237-MB302/MRAL-k0 (antibody, mouse IgG1, kappa)
heavy: B1 heavy with T229E, A230V, S234E
light: not shown
notes: copies: 2 + 2
B15: MB295 (antibody, mouse IgG1, kappa)
heavy: B1 heavy with A230V, V236H
light: not shown
notes: copies: 2 + 2
B16: H237-MB496/MRAL-k0 (antibody, mouse IgG1, kappa)
heavy: B1 heavy with T229E, A230P, P231N, S234E, S294M, K330R
light: not shown
notes: copies: 2 + 2
B17: MB299 (antibody, mouse IgG1, kappa)
heavy: B1 heavy with T229E
light: not shown
notes: copies: 2 + 2
B18: MB289 (antibody, mouse IgG1, kappa)
heavy: B1 heavy with T229E, A230V
light: not shown
notes: copies: 2 + 2
B19: MB296 (antibody, mouse IgG1, kappa)
heavy: B1 heavy with A230V, S263A
light: not shown
notes: copies: 2 + 2
B20: H237-MB492/MRAL-k0 (antibody, mouse IgG1, kappa)
heavy: B1 heavy with T229E, A230P, P231N, S234E, N320D
light: not shown
notes: copies: 2 + 2
B21: MB292 (antibody, mouse IgG1, kappa)
heavy: B1 heavy with A230V, P231E
light: not shown
notes: copies: 2 + 2
B22: H237-MB499/MRAL-k0 (antibody, mouse IgG1, kappa)
heavy: B1 heavy with T229E, A230P, P231N, S234E, S294M, N320D, K330R
light: not shown
notes: copies: 2 + 2
B23: H237-MB494/MRAL-k0 (antibody, mouse IgG1, kappa)
heavy: B1 heavy with T229E, A230P, P231N, S234E, S294L, K330R
light: not shown
notes: copies: 2 + 2

Columns and labels:
Experiment in all cases: SPR Biacore T200, KD ratio
mouse FcγRIII = molecular target: T1, mouse FcγRIII
Text: (§1) The antibody H chain variable region used was the variable region H237 (SEQ ID NO: 1) of the H chain VH3-IgG1 of the anti-IL-6 receptor antibody Fv4-IgG1 described in WO2009/125825. The antibody L chain commonly used was the L chain MRAL-k0 (SEQ ID NO: 2) of the anti-IL-6 receptor antibody tocilizumab. […] The resulting variant group was designated as MB110 variants. These variants were expressed and purified by the method of Reference Example 1 and evaluated for their binding to mFcγRII and mFcγRIII by the method of Reference Example 2 using Biacore T200.
(§2) Each altered antibody was analyzed for its interaction with each Fcγ receptor prepared above using Biacore T100 (GE Healthcare Japan Corp.), Biacore T200 (GE Healthcare Japan Corp.), Biacore A100, or Biacore 4000. The running buffer used was HBS-EP+ (GE Healthcare Japan Corp.). The assay temperature was set to 25° C. The sensor chips used were chips prepared by immobilizing Protein L (ACTIGEN or BioVision) onto Series S Sensor Chip CM5 (GE Healthcare Japan Corp.) or Series S Sensor Chip CM4 (GE Healthcare Japan Corp.) by the amine coupling method.
(§3) In order to calculate the KD value of each altered antibody for FcγR, kinetic analysis was conducted according to the following method: first, the antibody of interest was captured onto any of these chips and allowed to interact with mFcγR diluted with a running buffer. For the obtained sensorgram, the assay results were globally fit into the 1:1 Langmuir binding model using Biacore Evaluation Software to calculate an association rate constant ka (L/mol/s) and a dissociation rate constant kd (1/s). From these values, the dissociation constant KD (mol/L) was calculated.

mouse FcγRII = molecular target: T2, mouse FcγRII
Text: as §1, §2, §3

[1] = molecular target: T3, mouse FcγRII extracellular domain, …
Text: as §1, with “groups were” for “group was”, “MB397 variants and MB390 variants, respectively.” for “MB110 variants.”
as §2, §3

[2] = molecular target: T4, mouse FcγRIII extracellular domain, …
Text: as §1, with “groups were” for “group was”, “MB397 variants and MB390 variants, respectively.” for “MB110 variants.”
as §2, §3

| Binder | Relative mFcγRIII-binding activity (MB110 = 1) (mouse FcγRIII) | relative mFcγRIII-binding activity (mIgG1 = 1) (mouse FcγRIII) | Relative mFcγRII-binding activity (MB110 = 1) (mouse FcγRII) | relative mFcγRII-binding activity (mIgG1 = 1) (mouse FcγRII) | relative mFcγRII-binding activity (MB390 = 1) [1] | relative mFcγRII-binding activity (mIgG1 = 1) [1] | relative mFcγRIII-binding activity (MB390 = 1) [2] | relative mFcγRIII-binding activity (mIgG1 = 1) [2] |
| --- | --- | --- | --- | --- | --- | --- | --- | --- |
| B1 | 1.37 fold | 5.5 fold | 2.16 fold | 26.5 fold | – | – | – | – |
| B2 | 0.94 fold | 3.8 fold | 2.12 fold | 26 fold | – | – | – | – |
| B3 | – | – | – | – | 0.98 fold | 511 fold | 0.85 fold | 10.2 fold |
| B4 | – | – | – | – | 2.16 fold | 1130 fold | 2.9 fold | 34.6 fold |
| B5 | – | – | – | – | 1.48 fold | 773 fold | 1.32 fold | 15.7 fold |
| B6 | 1.66 fold | 6.7 fold | 3.47 fold | 42.6 fold | – | – | – | – |
| B7 | 1.01 fold | 4.1 fold | 3.25 fold | 39.9 fold | – | – | – | – |
| B8 | – | – | – | – | 6.4 fold | 3340 fold | 7.15 fold | 85.1 fold |
| B9 | 0.47 fold | 1.9 fold | 0.62 fold | 7.6 fold | – | – | – | – |
| B10 | – | – | – | – | 0.92 fold | 478 fold | 1.05 fold | 12.4 fold |
| B11 | – | – | – | – | 2.73 fold | 1420 fold | 3.77 fold | 44.9 fold |
| B12 | 1.15 fold | 4.6 fold | 5.98 fold | 73.4 fold | – | – | – | – |
| B13 | – | – | – | – | 1.2 fold | 623 fold | 1.45 fold | 17.2 fold |
| B14 | 1.11 fold | 4.5 fold | 4.37 fold | 53.7 fold | – | – | – | – |
| B15 | 0.42 fold | 1.7 fold | 0.62 fold | 7.6 fold | – | – | – | – |
| B16 | – | – | – | – | 1.7 fold | 884 fold | 1.71 fold | 20.3 fold |
| B17 | 1.61 fold | 6.5 fold | 4.96 fold | 60.8 fold | – | – | – | – |
| B18 | 1.23 fold | 4.9 fold | 3.57 fold | 43.8 fold | – | – | – | – |
| B19 | 1.39 fold | 5.6 fold | 1.71 fold | 21 fold | – | – | – | – |
| B20 | – | – | – | – | 1.19 fold | 622 fold | 0.92 fold | 10.9 fold |
| B21 | 1.02 fold | 4.1 fold | 2.82 fold | 34.6 fold | – | – | – | – |
| B22 | – | – | – | – | 1.9 fold | 992 fold | 2.03 fold | 24.2 fold |
| B23 | – | – | – | – | 4.05 fold | 2110 fold | 4.99 fold | 59.4 fold |
